From patent US7091173 (MYRIAD GENETICS, dated 2006)

Target: T1, FKBP-associated protein FAP48 (FAP48), amino acids 118-418, bait fused to the Gal4 DNA binding domain (human, UniProt P04386 1-147 (Saccharomyces cerevisiae entry))
T1 construct: range 1-147; Bait of the yeast two-hybrid screen; The coordinates 118-418 are counted on GenBank U73704
Assay: yeast two-hybrid; listed as prey of the bait in 'Binding Regions of FAP48 and Its Interacting Partners'; true positive by beta-galactosidase assay
Description: The new construct was selected directly in the yeast strain PNY200 for its ability to drive tryptophane synthesis (genotype of this strain: MATα trp1-901 leu2-3, 112 ura3-52 his3-200 ade2 gal4Δ gal80). In these yeast cells, the bait was produced as a C-terminal fusion protein with the DNA binding domain of the transcription factor Gal4 (amino acids 1 to 147). Prey libraries were transformed into the yeast strain BK100 (genotype of this strain: MATa trp1-901 leu2-3,112 ura3-52 his3-200 gal4Δ gal80 LYS2::GAL-HIS3 GAL2-ADE2 met2::GAL7-lacZ), and selected for the ability to drive leucine synthesis. In these yeast cells, each cDNA was expressed as a fusion protein with the transcription activation domain of the transcription factor Gal4 (amino acids 768 to 881) and a 9 amino acid hemagglutinin epitope tag. PNY200 cells (MATα mating type), expressing the bait, were then mated with BK100 cells (MATa mating type), expressing prey proteins from a prey library. The resulting diploid yeast cells expressing proteins interacting with the bait protein were selected for the ability to synthesize tryptophan, leucine, histidine, and adenine. […]

binding result: binds
B1: Dynactin (DCTN1(1278), p150-Glued), amino acids 1063-1205, prey fused to the Gal4 activation domain (other, UniProt P04386 768-881, looked up, not shown: small tags and cut ends)
chain: ANFNQSGNIADSSLSFTFTNSSNGPNLITTQTNSQALSQPIASSNVHDNFMNNEITASKIDDGNNSKPLSPGWTDQTAYNAFGITTGMFNTTTMDDVYNYLFDDEDTPPNPKKEIAGEEQQRGAIPGQAPGSVPGPGLVKDSPLLLQQISAMRLHISQLQHENSILKGAQMKASLASLPPLHVAKLSHEGPGSELPAGALYRKTSQLLETLNQLSTHTHVVDITRTSPAAKSPSAQLMEQVAQLKSLSDTVEKLKDE
notes: range 768-881;range 1063-1205; Prey clone of the yeast two-hybrid screen; Coordinates are counted on the GenBank entry; also called 150 kD dynein-associated polypeptide; DP-150
